Assays:
[1] = molecular target: SynDLP_(HPRN-AAAA) (Synechocystis sp. PCC 6803)
[2] = molecular target: SynDLP_(HPRN-AAAA) (Synechocystis sp. PCC 6803); assay: SEC; analytical SEC, Superose 6 Increase 3.2/300 in reaction buffer (20 mM HEPES pH 7.4, 150 mM NaCl, 7.5 mM KCl, 5 mM MgCl2, 0.2 mM DTT); 30 µl of 10 µM protein; 7 °C; no nucleotide, no membrane
SynDLP = molecular target: T1, SynDLP (Synechocystis sp. PCC 6803, UniProt P73765, K61A); assay: continuous regenerative coupled GTPase assay; type: biochemical; settings: P-loop mutant
T1 construct: gene slr0869; full length, C-terminal His tag (pET303-CT/His), E. coli Rosetta-gami 2 (DE3), calculated 93 kDa; oligomer of ~40-50 monomers in solution; model covers aa 1-793, last 19 residues unresolved
T1 sequence (P73765 entry or part of it K61A): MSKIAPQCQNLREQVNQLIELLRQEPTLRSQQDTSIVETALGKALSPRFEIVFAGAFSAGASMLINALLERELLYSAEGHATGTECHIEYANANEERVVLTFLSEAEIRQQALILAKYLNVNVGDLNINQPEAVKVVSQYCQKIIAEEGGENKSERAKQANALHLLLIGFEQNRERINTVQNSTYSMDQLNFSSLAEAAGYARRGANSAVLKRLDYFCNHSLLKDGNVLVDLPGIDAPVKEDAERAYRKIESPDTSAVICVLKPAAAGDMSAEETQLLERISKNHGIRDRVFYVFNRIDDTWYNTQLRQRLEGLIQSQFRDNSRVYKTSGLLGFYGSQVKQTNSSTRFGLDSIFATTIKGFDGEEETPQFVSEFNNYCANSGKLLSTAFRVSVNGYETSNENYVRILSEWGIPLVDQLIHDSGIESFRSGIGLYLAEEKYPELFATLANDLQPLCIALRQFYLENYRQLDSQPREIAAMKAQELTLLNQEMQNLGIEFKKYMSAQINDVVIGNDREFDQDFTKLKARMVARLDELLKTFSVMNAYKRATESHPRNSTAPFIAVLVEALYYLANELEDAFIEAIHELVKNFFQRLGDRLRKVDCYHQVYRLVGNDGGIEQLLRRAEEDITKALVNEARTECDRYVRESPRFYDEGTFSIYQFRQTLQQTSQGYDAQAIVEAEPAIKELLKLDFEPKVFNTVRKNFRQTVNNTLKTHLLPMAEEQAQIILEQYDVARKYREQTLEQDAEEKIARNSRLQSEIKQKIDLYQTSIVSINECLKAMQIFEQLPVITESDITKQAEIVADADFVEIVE

[3] = molecular target: SynDLP, the dynamin-like protein of Synechocystis sp. PCC 6803 (Synechocystis sp. PCC 6803)
[4] = molecular target: SynDLP, the dynamin-like protein of Synechocystis sp. PCC 6803 (Synechocystis sp. PCC 6803); assay: cryo-EM structure; about 3.0 mg/mL SynDLP in 5 mM MgCl2, 7.5 mM KCl, 20 mM HEPES pH 7.4 (no NaCl), no nucleotide, no membrane; segmented single-particle analysis, C2 symmetry; model of 8 monomers
[5] = substrate: Nc1nc2c(ncn2[C@@H]2O[C@H](COP(=O)(O)OP(=O)(O)OP(=O)(O)O)[C@@H](O)[C@H]2O)c(=O)[nH]1; assay: continuous regenerative coupled GTPase assay (PK/LDH, NADH); type: biochemical, Synechocystis sp. PCC 6803; settings: 0.5 µM protein, 20 mM HEPES pH 7.4, 150 mM NaCl, 7.5 mM KCl, 5 mM MgCl2, 0.2 mM DTT, 30 °C, no liposomes
Excerpt: continuous regenerative coupled GTPase assay (PK/LDH, NADH) on […]

Molecule	Km [5] [mM]	kcat [5] [s⁻¹]	further results
SynDLP_(HPRN-AAAA) (natural protein)	–	–	kcat of GTP hydrolysis (continuous, regenerative, coupled GTPase assay, 0.5 µM protein) [1]: 17 min⁻¹; stoichiometry N [2]: 2
Nc1nc2c(ncn2[C@@H]2O[C@H](COP(=O)(O)OP(=O)(O)OP(=O)(O)O)[C@@H](O)[C@H]2O)c(=O)[nH]1 [GTP]	–	–	continuous regenerative coupled GTPase assay (SynDLP): A mutation of a conserved residue in the P-loop (K61A) considerably reduced the GTPase activity
SynDLP, the dynamin-like protein of Synechocystis sp. PCC 6803 (natural protein)	–	–	kcat of GTP hydrolysis (continuous, regenerative, coupled GTPase assay, 0.5 µM protein) [3]: 44.6 min⁻¹; stoichiometry N [4]: 40 to 50 monomers
SynDLP (Synechocystis sp. PCC 6803 substr. Kazusa) (protein, full length, C-terminal His tag (pET303-CT/His), E. coli Rosetta-gami 2 (DE3), calculated 93 kDa; oligomer of ~40-50 monomers in solution; model covers aa 1-793, last 19 residues unresolved) MSKIAPQCQNLREQVNQLIELLRQEPTLRSQQDTSIVETALGKALSPRFEIVFAGAFSAGKSMLINALLERELLYSAEGHATGTECHIEYANANEERVVLTFLSEAEIRQQALILAKYLNVNVGDLNINQPEAVKVVSQYCQKIIAEEGGENKSERAKQANALHLLLIGFEQNRERINTVQNSTYSMDQLNFSSLAEAAGYARRGANSAVLKRLDYFCNHSLLKDGNVLVDLPGIDAPVKEDAERAYRKIESPDTSAVICVLKPAAAGDMSAEETQLLERISKNHGIRDRVFYVFNRIDDTWYNTQLRQRLEGLIQSQFRDNSRVYKTSGLLGFYGSQVKQTNSSTRFGLDSIFATTIKGFDGEEETPQFVSEFNNYCANSGKLLSTAFRVSVNGYETSNENYVRILSEWGIPLVDQLIHDSGIESFRSGIGLYLAEEKYPELFATLANDLQPLCIALRQFYLENYRQLDSQPREIAAMKAQELTLLNQEMQNLGIEFKKYMSAQINDVVIGNDREFDQDFTKLKARMVARLDELLKTFSVMNAYKRATESHPRNSTAPFIAVLVEALYYLANELEDAFIEAIHELVKNFFQRLGDRLRKVDCYHQVYRLVGNDGGIEQLLRRAEEDITKALVNEARTECDRYVRESPRFYDEGTFSIYQFRQTLQQTSQGYDAQAIVEAEPAIKELLKLDFEPKVFNTVRKNFRQTVNNTLKTHLLPMAEEQAQIILEQYDVARKYREQTLEQDAEEKIARNSRLQSEIKQKIDLYQTSIVSINECLKAMQIFEQLPVITESDITKQAEIVADADFVEIVE	0.50 ± 0.04	0.743 ± 0.0167	–
SynDLP (Synechocystis sp. PCC 6803 substr. Kazusa; C777A) (protein, full length, C-terminal His tag (pET303-CT/His), E. coli Rosetta-gami 2 (DE3), calculated 93 kDa; oligomer of ~40-50 monomers in solution; model covers aa 1-793, last 19 residues unresolved) MSKIAPQCQNLREQVNQLIELLRQEPTLRSQQDTSIVETALGKALSPRFEIVFAGAFSAGKSMLINALLERELLYSAEGHATGTECHIEYANANEERVVLTFLSEAEIRQQALILAKYLNVNVGDLNINQPEAVKVVSQYCQKIIAEEGGENKSERAKQANALHLLLIGFEQNRERINTVQNSTYSMDQLNFSSLAEAAGYARRGANSAVLKRLDYFCNHSLLKDGNVLVDLPGIDAPVKEDAERAYRKIESPDTSAVICVLKPAAAGDMSAEETQLLERISKNHGIRDRVFYVFNRIDDTWYNTQLRQRLEGLIQSQFRDNSRVYKTSGLLGFYGSQVKQTNSSTRFGLDSIFATTIKGFDGEEETPQFVSEFNNYCANSGKLLSTAFRVSVNGYETSNENYVRILSEWGIPLVDQLIHDSGIESFRSGIGLYLAEEKYPELFATLANDLQPLCIALRQFYLENYRQLDSQPREIAAMKAQELTLLNQEMQNLGIEFKKYMSAQINDVVIGNDREFDQDFTKLKARMVARLDELLKTFSVMNAYKRATESHPRNSTAPFIAVLVEALYYLANELEDAFIEAIHELVKNFFQRLGDRLRKVDCYHQVYRLVGNDGGIEQLLRRAEEDITKALVNEARTECDRYVRESPRFYDEGTFSIYQFRQTLQQTSQGYDAQAIVEAEPAIKELLKLDFEPKVFNTVRKNFRQTVNNTLKTHLLPMAEEQAQIILEQYDVARKYREQTLEQDAEEKIARNSRLQSEIKQKIDLYQTSIVSINEALKAMQIFEQLPVITESDITKQAEIVADADFVEIVE	0.35 ± 0.04	0.462 ± 0.0133	–
SynDLP (Synechocystis sp. PCC 6803 substr. Kazusa; H552A/N555A/P553A/R554A) (protein, full length, C-terminal His tag (pET303-CT/His), E. coli Rosetta-gami 2 (DE3), calculated 93 kDa; oligomer of ~40-50 monomers in solution; model covers aa 1-793, last 19 residues unresolved) MSKIAPQCQNLREQVNQLIELLRQEPTLRSQQDTSIVETALGKALSPRFEIVFAGAFSAGKSMLINALLERELLYSAEGHATGTECHIEYANANEERVVLTFLSEAEIRQQALILAKYLNVNVGDLNINQPEAVKVVSQYCQKIIAEEGGENKSERAKQANALHLLLIGFEQNRERINTVQNSTYSMDQLNFSSLAEAAGYARRGANSAVLKRLDYFCNHSLLKDGNVLVDLPGIDAPVKEDAERAYRKIESPDTSAVICVLKPAAAGDMSAEETQLLERISKNHGIRDRVFYVFNRIDDTWYNTQLRQRLEGLIQSQFRDNSRVYKTSGLLGFYGSQVKQTNSSTRFGLDSIFATTIKGFDGEEETPQFVSEFNNYCANSGKLLSTAFRVSVNGYETSNENYVRILSEWGIPLVDQLIHDSGIESFRSGIGLYLAEEKYPELFATLANDLQPLCIALRQFYLENYRQLDSQPREIAAMKAQELTLLNQEMQNLGIEFKKYMSAQINDVVIGNDREFDQDFTKLKARMVARLDELLKTFSVMNAYKRATESAAAASTAPFIAVLVEALYYLANELEDAFIEAIHELVKNFFQRLGDRLRKVDCYHQVYRLVGNDGGIEQLLRRAEEDITKALVNEARTECDRYVRESPRFYDEGTFSIYQFRQTLQQTSQGYDAQAIVEAEPAIKELLKLDFEPKVFNTVRKNFRQTVNNTLKTHLLPMAEEQAQIILEQYDVARKYREQTLEQDAEEKIARNSRLQSEIKQKIDLYQTSIVSINECLKAMQIFEQLPVITESDITKQAEIVADADFVEIVE	0.33 ± 0.02	0.283 ± 0.00333	–
